The values that follow come from paper PMC4198130, “Protein Interactions of the Vesicular Glutamate Transporter VGLUT1” (PLoS ONE, 2014).

Experiment [1] deals with T1, GST-Lyn-SH3 (Panomics) (human, UniProt P07948 63-123).
T1 construct: Lyn, human, SH3 domain; also called SH3 domain of Lyn; source: bought: Panomics (purified GST-Lyn-SH3 protein; also on the TranSignal SH3 Domain Array)
Briefly: peptide or protein array; TranSignal SH3 and WW Domain Arrays (Panomics/Affymetrix): purified GST fusions of human SH3 or WW domains immobilised on a membrane, in duplicate at 100 ng; His-PP1 in solution, detected with anti-His antibody (methods: purified His-PP1; results and legend: bacterial extract with the tagged protein). Conditions: both partners purified.

Experiment [2] addresses T2, GST fusion of the SH3 domain of Fyn (SH3 domain array) (human, UniProt P06241 82-143).
T2 construct: Fyn, human, SH3 domain; source: bought: Panomics/Affymetrix TranSignal SH3 Domain Array (purified GST fusion on a membrane)
The description is as above. Particulars: both partners purified.

The target in experiment [3] is T3, GST fusion of the SH3 domain of sorting nexin 9 (Panomics) (human, UniProt Q9Y5X1 1-62).
T3 construct: sorting nexin 9, human, SH3 domain; also called SNX9; source: bought: Panomics/Affymetrix (on the TranSignal SH3 Domain Array; GST fusion for pull-down)
The description is as above. Conditions: both partners purified.

The target of experiment [4] is GST fusion of the SH3 domain of Src (SH3 domain array) (human, UniProt P12931 84-145). The experiment is described as above. Particulars: both partners purified.
For experiment [5], the target named is T4, GST fusion of the SH3 domain of Hck (SH3 domain array) (human, UniProt P08631 78-138).
T4 construct: Hck, human, SH3 domain; source: bought: Panomics/Affymetrix TranSignal SH3 Domain Array (purified GST fusion on a membrane)
Described as above. Conditions: both partners purified.

For experiment [6], the target named is T5, GST fusion of the SH3 domain of EPS8 (Panomics) (human, UniProt Q12929 531-590).
T5 construct: EPS8, human, SH3 domain; source: bought: Panomics/Affymetrix (on the TranSignal SH3 Domain Array; GST fusion for pull-down)
Described as above. Conditions: both partners purified.

Experiment [7] has as its target T6, GST fusion of the second SH3 domain of Nck1 (human, UniProt P16333 106-165).
T6 construct: Nck1, human, second SH3 domain (D2); also called Nck1 D2
Briefly: pull-down; GST fusions of SH3 or WW domains on glutathione sepharose beads, incubated with detergent-solubilized (2% TX-100) rat brain extract, RT 60 min; bound VGLUT1 by immunoblot, band intensity normalised to lysate. Particulars: one partner purified.

Experiment [8] addresses T7, GST fusion of the SH3 domain of human Lyn (pGEX, from Clifford Lowell) (human, UniProt P07948 63-123).
T7 construct: Lyn, human, SH3 domain; That the pGEX constructs from C; also called GST-Lyn
The experiment is described as above. Particulars: one partner purified.

Experiment [9] concerns the target T1, GST-Lyn-SH3 (Panomics). The experiment is described as above. Particulars: one partner purified.
Experiment [10] addresses T8, GST fusion of the third SH3 domain of Nck1 (human, UniProt P16333 190-252).
T8 construct: Nck1, human, third SH3 domain (D3); also called Nck1 D3
The experiment is described as above. Conditions: one partner purified.

Experiment [11] concerns the target T9, GST fusion of the first SH3 domain of Nck2 (human, UniProt O43639 2-61).
T9 construct: Nck2, human, first SH3 domain (D1); also called Nck2 D1
The experiment is described as above. Particulars: one partner purified.

Experiment [12] concerns the target T10, GST fusion of the SH3 domain of human Fyn (pGEX, from Clifford Lowell) (human, UniProt P06241 82-143).
T10 construct: Fyn, human, SH3 domain; also called GST-Fyn
Described as above. Particulars: one partner purified.

T1 sequence (P07948 63-123): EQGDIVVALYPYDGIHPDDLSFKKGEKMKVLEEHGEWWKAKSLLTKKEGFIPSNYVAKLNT
T5 sequence (Q12929 531-590): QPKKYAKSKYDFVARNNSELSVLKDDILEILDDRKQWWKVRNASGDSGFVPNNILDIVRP
T9 sequence (O43639 2-61): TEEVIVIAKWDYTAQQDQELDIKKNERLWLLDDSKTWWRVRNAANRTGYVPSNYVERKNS
T7 sequence (P07948 63-123): as the sequence (P07948 63-123) above
T2 sequence (P06241 82-143): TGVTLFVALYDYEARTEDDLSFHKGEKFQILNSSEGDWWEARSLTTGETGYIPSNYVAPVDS
T10 sequence (P06241 82-143): as above
T3 sequence (Q9Y5X1 1-62): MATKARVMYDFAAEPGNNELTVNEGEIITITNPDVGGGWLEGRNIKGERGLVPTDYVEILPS
T4 sequence (P08631 78-138): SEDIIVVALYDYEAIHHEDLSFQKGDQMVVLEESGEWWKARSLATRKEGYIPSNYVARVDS

B1: His-tagged VGLUT1 C-terminal peptide (amino acids 513-549) (domain or fragment, rat, UniProt Q62634 513-549, looked up)
chain: HDQLAGSDESEMEDEVEPPGAPPAPPPSYGATHSTVQ
notes: VGLUT1 (vesicular glutamate transporter 1), rat, amino acids 513-549 of the C-terminus (acidic cluster, first polyproline domain PP1, PEST); Cloned in the Ligand Expression Vector (Panomics/Affymetrix); also called His-PP1; His-VGLUT1 PP1; source: E. coli, purified (Ni-NTA, imidazole elution, dialysis) by the methods; soluble bacterial extract by the results and the legend
For B1, the binding result (with GST-Lyn-SH3 (Panomics) [1]; in experiment [2]; in experiment [3]; in [4]; in experiment [5]; in experiment [6]) was “binds” each time.

B2: VGLUT1 from rat brain extract (natural protein, rat (endogenous in rat brain), UniProt Q62634 1-560, looked up)
chain: MEFRQEEFRKLAGRALGRLHRLLEKRQEGAETLELSADGRPVTTHTRDPPVVDCTCFGLPRRYIIAIMSGLGFCISFGIRCNLGVAIVSMVNNSTTHRGGHVVVQKAQFNWDPETVGLIHGSFFWGYIVTQIPGGFICQKFAANRVFGFAIVATSTLNMLIPSAARVHYGCVIFVRILQGLVEGVTYPACHGIWSKWAPPLERSRLATTAFCGSYAGAVVAMPLAGVLVQYSGWSSVFYVYGSFGIFWYLFWLLVSYESPALHPSISEEERKYIEDAIGESAKLMNPVTKFNTPWRRFFTSMPVYAIIVANFCRSWTFYLLLISQPAYFEEVFGFEISKVGLVSALPHLVMTIIVPIGGQIADFLRSRHIMSTTNVRKLMNCGGFGMEATLLLVVGYSHSKGVAISFLVLAVGFSGFAISGFNVNHLDIAPRYASILMGISNGVGTLSGMVCPIIVGAMTKHKTREEWQYVFLIASLVHYGGVIFYGVFASGEKQPWAEPEEMSEEKCGFVGHDQLAGSDESEMEDEVEPPGAPPAPPPSYGATHSTVQPPRPPPPVRDY
notes: VGLUT1, endogenous in rat brain; source: endogenous, detergent-solubilized rat brain extract
Regarding B2, the “band intensity normalised to lysate” value in [7] is 0.763 a.u; in experiment [8], 0.877 a.u; in the experiment with GST-Lyn-SH3 (Panomics) [9] it was 0.718 a.u; in experiment [10] it was 0.183 a.u; in [11], 0.103 a.u; in [12] it was 0.362 a.u.
